Data from the supplement of paper PMC10567573.
± gives the standard deviation.

Test: protein stability index of a GFP-peptide fusion (GPS, HEK-293T) (PSI 1-6); higher = more stable
[1] = treatment: DMSO, c terminus: a fixed tail appended
[2] = treatment: MLN4924 1 uM, 8 h, c terminus: a fixed tail appended
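Further: 24-mer peptide tiles fused after GFP, lentivirally expressed, FACS-sorted into six equal bins by GFP/DsRed ratio, decoded by Illumina sequencing, PSI is the read-weighted mean bin number.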

Sequence | protein stability index [1] | protein stability index [2] | protein stability index (treatment: DMSO, c terminus: native) | protein stability index (treatment: MLN4924 1 uM, 8 h, c terminus: native)
KKLRLVFKSLDKKNDGRIDAQEIM [SLC25A25] | 2.57 ± 0.23 | 2.87 ± 0.31 | – | –
WAANAGVTASPPTDLIWKNQNSWG [LMNB1] | 2.46 ± 0.26 | 2.48 ± 0.5 | – | –
VFSDTATPDIKSHYAFRIFDFDDD [CIB1] | 3.19 ± 0.27 | 3.18 ± 0.42 | – | –
DQKERCIIVRTTNKKYYKKFSIPD [DPCD] | 2.95 ± 0.21 | 3.06 ± 0.27 | – | –
ECKHPSVFQHGDNSFRLLFDVVVI [MCOLN1] | 2.9 ± 0.48 | 3.02 ± 0.71 | – | –
LPPTPLLLFPEEEATNGREGLLRF [AUP1] | 3.7 ± 0.33 | 3.73 ± 0.13 | – | –
WLQERYEIVGNLGEGTFGKVVECL [CLK3] | 2.24 ± 0.068 | 2.27 ± 0.12 | – | –
LQEKQKNEKLISLQEQLQRFLKK [TAF7L] | – | – | 4.51 ± 0.29 | 4.6 ± 0.15
TMLKAMFSGRMEVLTDSEGWILID [KCTD10] | 2.51 ± 0.57 | 2.75 ± 0.46 | – | –
MEAADASRSNGSSPEARDARSPSG [TRIM29] | 5.29 ± 0.18 | 5.5 ± 0.091 | – | –
KDVLRYGEEQLKTHKKCKEEVVST [FCHO1] | 4.85 ± 0.13 | 4.78 ± 0.19 | – | –
SFWNDCISSGLRGCMLIELALRGR [GOLPH3] | 2.71 ± 0.35 | 2.66 ± 0.75 | – | –
PVELYTAFQHTPTSITLTASRVSK [KMT2E] | 3.63 ± 0.095 | 3.71 ± 0.13 | – | –
LPCFNGRVVSWLVSAEGSHPDPAP [DVL3] | 2.64 ± 0.24 | 2.53 ± 0.28 | – | –
ISLEERRAQLPKYQRNLPRPGQAP [ZNF207] | 3.41 ± 0.12 | 3.67 ± 0.32 | – | –
ADIMISFVRGDHRDNSPFDGPGGN [MMP1] | 2.96 ± 0.31 | 3.07 ± 0.36 | – | –
TALLGGPRRCHSAPPQGSCGDELP [PLEKHN1] | 4.1 ± 0.3 | 4.45 ± 0.47 | – | –
AADDFRLKYENELALRQGVEADIN [KRT15] | 4.77 ± 0.29 | 4.64 ± 0.23 | – | –
HQCHKVIRGRYLVALGHAYHPEEF [PDLIM7] | 2.17 ± 0.29 | 2.2 ± 0.62 | – | –
LPELFHKIGVGAMTWSPLACGIVS [KCNAB2] | 2.74 ± 0.42 | 2.84 ± 0.46 | – | –
WLRVLNPDLVKGPWTKEEDQKVIE [MYBL2] | 2.61 ± 0.36 | 2.92 ± 0.18 | – | –
FRKDSVLNILIQSLDWETFEQYCA [INTS3] | 2.51 ± 0.61 | 2.04 ± 0.18 | – | –
SLAHCRHDGEDVACPQGGVQYGAG [LOXL2] | 4.65 ± 0.5 | 3.96 ± 0.41 | – | –

Sequence | protein stability index [1] | protein stability index [2] | protein stability index (treatment: DMSO, c terminus: native) | protein stability index (treatment: MLN4924 1 uM, 8 h, c terminus: native)
AKQRAKEAQERELRKREKAEEKER [LRRC59] | 5.45 ± 0.14 | 5.52 ± 0.36 | – | –
LIKSGAHFDATNLHKQTASDLLDE [FEM1C] | 4.61 ± 0.36 | 4.53 ± 0.51 | – | –
TYVGALFNGLTLLLMAVVSMFTLP [RTN1] | 3 ± 0.58 | 3.43 ± 0.38 | – | –
RIHSGEKPYECNECGKAFSQSSYL [ZNF232] | 2.85 ± 0.068 | 3.1 ± 0.35 | – | –
LGRELMLQLSEFLCEEFRNRNQRI [CPN1] | 2.31 ± 0.2 | 2.26 ± 0.26 | – | –
QVAMRCRCSSMHFLVAEWNEPSIN [SAT1] | 2.23 ± 0.53 | 2.27 ± 0.2 | – | –
PAQRITLAEALLHPFFAGLTPEER [CLK3] | 3 ± 0.28 | 3.13 ± 0.27 | – | –
FQMVLEGGVCCTVTLNFNVPGEFK [GFOD1] | 3.1 ± 0.41 | 3.14 ± 0.31 | – | –
LQGKDAWLPLHYAAWQGHLPIVKL [RIPK4] | 2.21 ± 0.38 | 2.48 ± 0.42 | – | –
ALQSRAAQRHRGSAKDGGPQPPDA [PLEKHN1] | 4.57 ± 0.49 | 4.96 ± 0.34 | – | –
GLGPTSEPFPSSDDSPRSALAAAT [SPAG8] | 4.95 ± 0.19 | 5.18 ± 0.038 | – | –
TCQKFLIQYNRRQLLILLQNCTDE [POP5] | 2.73 ± 0.31 | 2.36 ± 0.21 | – | –
SSRDKLTEMAASSQGNFEGNFESL [FUNDC2] | 4.88 ± 0.28 | 5.03 ± 0.42 | – | –
SLTDSVNHHSPGGSSDASGSYSST [ESRRG] | 4.99 ± 0.28 | 5.1 ± 0.15 | – | –
SQIQGLIGSVEEQLAQLRCEMEQQ [KRT16] | 4.387 ± 0.042 | 4.52 ± 0.28 | – | –
QDSPGPHEALSRLWELCHLWLRPE [ZNF396] | 2.33 ± 0.14 | 2.15 ± 0.079 | – | –
FGFAQILIPGDAYTDYVATRWYRA [CDKL4] | 2.31 ± 0.58 | 2.84 ± 0.76 | – | –
PLMKPHRPWADTCSSSGKDGNLCL [HESX1] | 2.74 ± 0.16 | 2.69 ± 0.21 | – | –
SSKTITAEIPDGPPVVAHYDMSDT [C18orf25] | 5.14 ± 0.14 | 4.96 ± 0.23 | – | –
AQEEPWEKKESLGAAQEALSIQLQ [ZNF232] | 4.91 ± 0.4 | 5 ± 0.15 | – | –
DKSDQSLPNASADSLGGSQEMVQR [TRAF3IP2] | 5.36 ± 0.17 | 5.33 ± 0.34 | – | –
WFSDPSDTALLNLLPMLDALRFTA [CTDNEP1] | 2.73 ± 0.58 | 2.98 ± 0.67 | – | –
VFYLWSAIEIFRYSFYMLTCIDMD [HACD3] | 3.13 ± 0.15 | 3.5 ± 0.47 | – | –

Sequence | protein stability index [1] | protein stability index [2] | protein stability index (treatment: DMSO, c terminus: native) | protein stability index (treatment: MLN4924 1 uM, 8 h, c terminus: native)
IATATEIAYYSYIYSVVDLGMYQK [SLC19A2] | 3.05 ± 0.33 | 2.94 ± 0.51 | – | –
WELVVLGKLKWNLAAVTPHDFIEH [CCND2] | 2.7 ± 0.71 | 2.62 ± 0.39 | – | –
EERALLLGRMGKHEQALFIYVHIL [VPS39] | 2.96 ± 0.41 | 2.68 ± 0.51 | – | –
FLQYYYQSGCLYRLRALGERHTMD [TMEM120A] | 2.46 ± 0.47 | 2.35 ± 0.38 | – | –
EHDFLDRDAIEALCRRLNTLNKCA [DLC1] | 2.73 ± 0.36 | 2.73 ± 0.49 | – | –
QQVCQWLLWATNEFSLVNVNLQRF [ETS2] | 3.01 ± 0.23 | 2.94 ± 0.42 | – | –
ETDVWFSKQRKDFEGMAFLETEQG [GMCL1] | 4.12 ± 0.62 | 4.45 ± 0.16 | – | –
ESLRPLVQTPPGGSEVVPVISPMY [IKZF1] | – | 3.72 ± 0.71 | – | –
SYSRLCRESGAEPQEAVLQQLHQL [LRRC45] | 3.71 ± 0.29 | 3.71 ± 0.19 | – | –
HVPTVWAIDQYRVCQEVLERSRDV [RHOBTB1] | 2.83 ± 0.22 | 3.08 ± 0.3 | – | –
EAAGVQIQMVNESLGYVRSQFLKL [CD207] | 2.334 ± 0.019 | 2.3 ± 0.44 | – | –
ISHQQCWASTSPGTDLPLSEIPRG [TRIM15] | 3.51 ± 0.21 | 3.63 ± 0.53 | – | –
NFSVDRWERKEGGGGISCVLQDGC [CPOX] | 3.8 ± 0.2 | 3.8 ± 0.33 | – | –
PGETRRNSYPRADTGLFSRSKSGS [TRIM29] | 4.73 ± 0.18 | 5.01 ± 0.47 | – | –
HVPLQRLSLLVHNVSVMHKSLDNM [FBXO33] | 2.01 ± 0.22 | 2.3 ± 0.12 | – | –
INKIAGHPLAQNERCLHMFLQEEA [SNX12] | 3.07 ± 0.12 | 3.3 ± 0.17 | – | –
FMPAMQFSIPPWRYDAEVVAIAQK [MYORG] | 2.33 ± 0.22 | 2.52 ± 0.18 | – | –
CGSFQVTTGLQVPSAVRCLQKRGS [FSD1] | 2.96 ± 0.2 | 2.8 ± 0.17 | – | –
TDGDHNVYPRPPEPREFSSRNFGV [ZC2HC1C] | 3.89 ± 0.23 | 3.97 ± 0.18 | – | –
ATGMFLQYTVPGTEGVTQLKLTVV [ZFYVE21] | 3.29 ± 0.56 | 2.9 ± 0.46 | – | –
EEAWVKIENLAKANPQYTVYSQAS [PPP2R5C] | 3.29 ± 0.16 | 3.48 ± 0.18 | – | –
VWDLNMEARPIETYQVHDYLRSKL [PPP2R2C] | 2.42 ± 0.43 | 2.55 ± 0.095 | – | –
SRSHDRLPYQRRYRERRDSDTYRC [CLK3] | 4.09 ± 0.27 | 4.24 ± 0.36 | – | –

Sequence | protein stability index [1] | protein stability index [2] | protein stability index (treatment: DMSO, c terminus: native) | protein stability index (treatment: MLN4924 1 uM, 8 h, c terminus: native)
GKIVGSLCAIAGVLTIALPVPVIV [KCNA1] | 3.19 ± 0.34 | 3.22 ± 0.44 | – | –
SGAEGHSHSCYHDTRSGFWYVCRT [TRIM35] | 2.45 ± 0.17 | 2.64 ± 0.24 | – | –
ILIALVGATPSYHWDLAELLPNQS [SLC22A15] | 2.85 ± 0.43 | 2.9 ± 0.75 | – | –
PPEPLSQVSMWDQRWQDHQPLLPI [APBB1IP] | 2.76 ± 0.75 | 3.72 ± 1.1 | – | –
MGSASPGLSSVSPSHLLLPPDTVS [SPDEF] | 4.28 ± 0.27 | 4.2 ± 0.23 | – | –
GGTPHCEPCQLPSESPGSLSEVLA [DNAAF3] | 4.19 ± 0.49 | 4.56 ± 0.33 | – | –
IPPKEFHFRHPKRSVSLSMRKSGA [BNIP3L] | 3.37 ± 0.34 | 3.77 ± 0.34 | – | –
LSNLVGKPSENHPLHNSGLLSLDP [MED27] | 3.87 ± 0.28 | 4.13 ± 0.26 | – | –
TTGSKELDKLLQGGIETGSITEMF [RAD51] | 3.51 ± 0.27 | 3.76 ± 0.51 | – | –
LEDLKDQIAQLEASLAAAKKQLAD [LMNB1] | 5.3 ± 0.12 | 5.21 ± 0.15 | – | –
SSGGSSGSSSDNRTYRYSNRYCGG [DYRK1B] | 4.04 ± 0.23 | 4.07 ± 0.12 | – | –
FPAVTVEVKSSIAGSSTWERYFIP [SLC29A1] | 2.61 ± 0.88 | 2.4 ± 0.28 | – | –
ETLSGDRVRLDSELRNVQDVVEDY [KRT71] | 5.16 ± 0.19 | 5.36 ± 0.18 | – | –
VPGHQTPSDLDQFSDSSLIEDSQA [LURAP1L] | 5.39 ± 0.15 | 5.41 ± 0.17 | – | –
LREMLSKKHAAYAWPFYKPVDAEA [BRD3] | 2.54 ± 0.26 | 2.99 ± 0.16 | – | –
CWDMQGKRFVAMKVVKSAQHYTET [SRPK2] | 2.34 ± 0.34 | 2.54 ± 0.3 | – | –
LDSCNSLTPKSTPVKTLPFSPSQF [MYBL2] | 3.34 ± 0.2 | 3.37 ± 0.42 | – | –
LRKSDMLEKEQVAHIRAERDILVE [STK38L] | 3.8 ± 0.35 | 4.17 ± 0.13 | – | –
PNYTMEGERPEEGVAGGLNRNQGL [TCF25] | 5.22 ± 0.15 | 5.22 ± 0.37 | – | –
IDYKTTTILLDGQRVKLKLWDTSG [RAB40A] | 2.27 ± 0.07 | 2.36 ± 0.2 | – | –
